Here are results for 58 variants from the FLAb antibody collection (doi:10.7554/elife.23156).

The labels stand for the following.
B1: scFv; the commonest letter at each place (parent)
chain 1: EVKLDETGGGLVQPGRPMKLSCVASGFTFSDYWMNWVRQSPEKGLEWVAQIRNKPYNYETYYSDSVKGRFTISRDDSKSSVYLQMNNLRVEDMGIYYCTGSYYGMDYWGQGTSVTVS
chain 2: DVVMTQTPLSLPVSLGDQASISCRSSQSLVHSNGNTYLRWYLQKPGQSPKVLIYKVSNRFSGVPDRFSGSGSGTDFTLKISRVEAEDLGVYFCSQSTHVPWTFGGGTKLEIK

Data set [1] covers variants of B1. Nature of the data set: Kd (Tite-Seq). Particulars: with fluorescein; format: scFv 4-4-20, heavy + light.
In data set [2] the parent is B1. Nature of the data set: yeast surface expression (ratio to wild type); higher = more expressed. Particulars: format: scFv 4-4-20, heavy + light.

For chain 1 S101Y Y103N D106L, the Kd in data set [1] is at least 10 µM. The yeast surface expression in data set [2] is 0.957.

With chain 1 S101L Y103R, the Kd in data set [1] was at least 10 µM. Further, the yeast surface expression in data set [2] was found to be 0.702.

On to chain 1 S101L Y103K, for which, in data set [1], the Kd was at least 10 µM. For the same variant, the yeast surface expression in data set [2] came to 0.524.

In the case of chain 1 S101L Y103I, the Kd in data set [1] is at least 10 µM. The yeast surface expression in data set [2] turned out to be 0.229.

Consider chain 1 S101L Y103Q, for which the Kd in data set [1] was at least 10 µM. The yeast surface expression in data set [2] was found to be 0.786.

chain 1 T28I W33K: the Kd in data set [1] was at least 10 µM. In data set [2], the yeast surface expression turned out to be 0.617.

Regarding chain 1 S101W Y107K, the Kd in data set [1] is at least 10 µM. Also, the yeast surface expression in data set [2] was 0.427.

With chain 1 S101W Y107T, the Kd in data set [1] is at least 10 µM. The yeast surface expression in data set [2] amounted to 0.42.

As for chain 1 S101W Y107W, the Kd in data set [1] is at least 10 µM. The yeast surface expression in data set [2] turned out to be 0.386.

Regarding chain 1 T28D, the Kd in data set [1] was found to be 0.00184 µM. Besides, the yeast surface expression in data set [2] stood at 1.15.

In the case of chain 1 T28A, the Kd in data set [1] came out at 0.00158 µM. The yeast surface expression in data set [2] is 1.01.

Take chain 1 T28K: in data set [1], the Kd worked out at 0.000988 µM. Also, in data set [2], the yeast surface expression is 1.07.

Turning to chain 1 T28H, the Kd in data set [1] was 0.00158 µM. In data set [2], the yeast surface expression came to 0.965.

In the case of chain 1 T28I, the Kd in data set [1] turned out to be 0.000504 µM. In data set [2], the yeast surface expression came out at 1.07.

Turning to chain 1 T28F, the dissociation constant Kd in data set [1] stood at 0.00444 µM. In data set [2], the yeast surface expression worked out at 0.842.

For the variant chain 1 T28C, in data set [1], the Kd was found to be 0.00179 µM. Also, the yeast surface expression in data set [2] was 0.965.

As to chain 1 T28G, the Kd in data set [1] was determined as 0.0189 µM. Moreover, the yeast surface expression in data set [2] came to 0.994.

Take chain 1 T28E: the Kd in data set [1] was 0.0017 µM. For the same variant, in data set [2], the yeast surface expression was determined as 1.04.

With chain 1 S101P G104W, the Kd in data set [1] was at least 10 µM. Moreover, the yeast surface expression in data set [2] was 0.299.

For the variant chain 1 S101T G104F, the Kd in data set [1] was at least 10 µM. Moreover, the yeast surface expression in data set [2] was 0.437.

For chain 1 T28E F29Q, the Kd in data set [1] was found to be 0.00827 µM. For the same variant, in data set [2], the yeast surface expression was 1.

As for chain 1 T28E F29Y, in data set [1], the Kd was found to be 0.00468 µM. For the same variant, the yeast surface expression in data set [2] came to 1.01.

Turning to chain 1 S101P Y107F W108F, the Kd in data set [1] was at least 10 µM. Moreover, the yeast surface expression in data set [2] was 0.239.

Regarding chain 1 S101L M105D D106L, the dissociation constant (Kd) in data set [1] is at least 10 µM. Moreover, the yeast surface expression in data set [2] came out at 0.276.

Take chain 1 T28H S30N Y32M: the Kd in data set [1] was 0.0692 µM. In data set [2], the yeast surface expression was 1.01.

Turning to chain 1 T28H Y32I, the dissociation constant Kd in data set [1] is at least 10 µM. In data set [2], the yeast surface expression turned out to be 0.92.

Consider chain 1 S101R Y107L, for which the Kd in data set [1] was at least 10 µM. Besides, in data set [2], the yeast surface expression came to 0.862.

Take chain 1 S101R Y107C: in data set [1], the dissociation constant Kd was at least 10 µM. In addition, in data set [2], the yeast surface expression turned out to be 0.286.

Turning to chain 1 S101R Y107I, the Kd in data set [1] was at least 10 µM. Moreover, in data set [2], the yeast surface expression came to 0.812.

Take chain 1 T28D F29T W36L: the Kd in data set [1] was at least 10 µM. Also, in data set [2], the yeast surface expression is 0.514.

Turning to chain 1 T28H S30D, in data set [1], the Kd turned out to be 0.00184 µM. The yeast surface expression in data set [2] came to 0.948.

Take chain 1 T28H S30G: the Kd in data set [1] turned out to be 0.00122 µM. In data set [2], the yeast surface expression is 1.04.

For chain 1 T28F F29W V37K, the Kd in data set [1] is at least 10 µM. Also, the yeast surface expression in data set [2] is 0.532.

In the case of chain 1 T28A W33R N35I, in data set [1], the Kd was at least 10 µM. Besides, the yeast surface expression in data set [2] was determined as 0.622.

With chain 1 T28C D31S, the Kd in data set [1] was 0.00638 µM. For the same variant, the yeast surface expression in data set [2] amounted to 0.694.

On to chain 1 T28C D31Q, for which the Kd in data set [1] stood at 0.0113 µM. In data set [2], the yeast surface expression stood at 0.575.

chain 1 S101V Y102V: in data set [1], the dissociation constant Kd was at least 10 µM. Besides, the yeast surface expression in data set [2] came to 0.432.

Turning to chain 1 S101V Y102E, the Kd in data set [1] was at least 10 µM. The yeast surface expression in data set [2] was 0.509.

chain 1 T28G F29R W36P: the equilibrium dissociation constant (Kd) in data set [1] is at least 10 µM. The yeast surface expression in data set [2] was determined as 0.146.

In the case of chain 1 T28H V37L, the Kd in data set [1] is 3.43 µM. In addition, the yeast surface expression in data set [2] stood at 0.691.

For chain 1 S101R G109M, the Kd in data set [1] was at least 10 µM. The yeast surface expression in data set [2] was 0.251.

chain 1 S101R G109Q: the dissociation constant Kd in data set [1] is at least 10 µM. In addition, in data set [2], the yeast surface expression worked out at 0.201.

For the variant chain 1 S101V D106I Y107C, in data set [1], the Kd was at least 10 µM. Further, the yeast surface expression in data set [2] turned out to be 0.165.

Turning to chain 1 S101Y G104T, the Kd in data set [1] was at least 10 µM. Further, the yeast surface expression in data set [2] was determined as 0.261.

As to chain 1 S101Y G104H, the dissociation constant (Kd) in data set [1] was at least 10 µM. Moreover, the yeast surface expression in data set [2] came out at 0.343.

As to chain 1 S101Y G104C, the Kd in data set [1] was at least 10 µM. Moreover, in data set [2], the yeast surface expression was 0.249.

Regarding chain 1 T28E M34R, the Kd in data set [1] is at least 10 µM. Besides, the yeast surface expression in data set [2] stood at 0.531.

Turning to chain 1 T28E M34S, the Kd in data set [1] was 0.0592 µM. Also, in data set [2], the yeast surface expression stood at 0.742.

chain 1 S101T M105S: in data set [1], the Kd is at least 10 µM. For the same variant, in data set [2], the yeast surface expression turned out to be 0.699.

Turning to chain 1 S101T M105T, the Kd in data set [1] was at least 10 µM. In data set [2], the yeast surface expression worked out at 0.928.

For chain 1 S101Y Y107P, the Kd in data set [1] was at least 10 µM. Further, in data set [2], the yeast surface expression was determined as 0.489.

As to chain 1 S101Y Y107E, the Kd in data set [1] was at least 10 µM. Moreover, in data set [2], the yeast surface expression was determined as 0.625.

As for chain 1 T28G V37P, the Kd in data set [1] was found to be 0.00519 µM. Moreover, in data set [2], the yeast surface expression amounted to 0.581.

Consider chain 1 S101V Y103V, for which the Kd in data set [1] is at least 10 µM. In data set [2], the yeast surface expression amounted to 0.316.

chain 1 T28G D31C: the Kd in data set [1] is at least 10 µM. Further, in data set [2], the yeast surface expression was found to be 0.472.

For chain 1 T28C V37N, the Kd in data set [1] was at least 10 µM. The yeast surface expression in data set [2] came out at 0.357.

As to chain 1 T28C F29P, in data set [1], the equilibrium dissociation constant (Kd) was at least 10 µM. In addition, the yeast surface expression in data set [2] is 0.637.

On to chain 1 S101P G104T M105Y, for which the Kd in data set [1] is at least 10 µM. In addition, the yeast surface expression in data set [2] was 0.208.

The term Kd denotes a measure of binding affinity in units of concentration.
